Where a chain is given by its changes, count along the chain named. In names and notes the source's numbering stands. Where two headings read alike, the source gives them in different places.
Columns and labels:
[1] = target: T1, NS3a/danoprevir complex (biotinylated NS3a_3 with danoprevir) (hepatitis C virus genotype 1a); test: yeast surface display
T1 construct: See note of m30; also called danoprevir/NS3a complex

[2] = target: T2, NS3a/grazoprevir complex (biotinylated NS3a_3 with grazoprevir) (hepatitis C virus genotype 1a); test: yeast surface display titration, apparent KD; NS3a_3, 10 drug:1 NS3a
T2 construct: See note of m30; also called grazoprevir/NS3a complex

[3] = target: T1, NS3a/danoprevir complex (biotinylated …); test: as above
[4] = target: T3, NS3a/asunaprevir complex (biotinylated NS3a_3 with asunaprevir) (hepatitis C virus genotype 1a); test: as above
T3 construct: See note of m30

[5] = target: T2, NS3a/grazoprevir complex (biotinylated …); test: ratio of apparent KD against the danoprevir/NS3a complex of the same clone
[6] = target: T3, NS3a/asunaprevir complex (biotinylated …); test: as above
[7] = target: T2, NS3a/grazoprevir complex (biotinylated …); test: yeast surface display; relative binding, too weak for a full titration curve
[8] = target: T1, NS3a/danoprevir complex (biotinylated …); test: as above
[9] = target: T3, NS3a/asunaprevir complex (biotinylated …); test: as above
[10] = target: T2, NS3a/grazoprevir complex (biotinylated …); test: yeast surface display; against the NS3a/danoprevir complex
[11] = target: T3, NS3a/asunaprevir complex (biotinylated …); test: as above
[12] = target: T1, NS3a/danoprevir complex (biotinylated …)
[13] = target: T2, NS3a/grazoprevir complex (biotinylated …); test: yeast surface display
[14] = target: T4, NS3aH1-mCherry, no drug (DMSO) (hepatitis C virus); test: colocalization, confocal microscopy, NIH3T3 cells, no drug
T4 construct: also called NS3a-mCherry

[15] = target: T1, NS3a/danoprevir complex (biotinylated …); test: yeast surface display, flow cytometry
[16] = target: T2, NS3a/grazoprevir complex (biotinylated …); test: yeast surface display, flow cytometry

B1: DNCR1, yeast surface display (C-terminal fusion to Aga2) (designed binder)
chain: KDNSSTIEGRYPYDVPDYALQASGGGGSGGGGSGGGGSASHMSSDEEEARELIERAKEAAERAQEAAERTGDPRVRELARELKRLAQEAAEEVKRDPSSSDVNEALKLIVEAIEAAVDALEAAERTGDPEVRELARELVRLAVEAAEEVQRNPSSSDVNEALLSIVIAIEAAVHALEAAERTGDPEVRELARELVRLAVEAAEEVQRNPSSREVEHALMKIVLAIYEAEESLREAEESGDPEKREKARERVREAVERAEEVQRDPSGWLNHLEGGGSEQKLISEEDL
B1 was tested, and the Kd [1] was < 200 nM, the Kd [2] was 2900 nM and the Kd [3] was 190 nM. The Kd [4] was 6300 nM, the Fold drug specificity [5] was 15 fold and the Fold drug specificity [6] was 33 fold.

B2: D5, yeast surface display (C-terminal fusion to Aga2) (designed binder)
chain: B1 chain with S164T, H174N, E215N, H216I, M219W, Y226Q, E229V
B2: binds [7]; binds [8]; binds [9].

B3: DNCR2, yeast surface display (C-terminal fusion to Aga2) (designed binder)
chain: B1 chain with L163H, I167Y, V173I, H174F, E213N, K220R, E227L, S231N
B3 was tested, and the fold specificity [10] was > 20000 fold, the fold specificity [11] was > 20000 fold and the Kd [2] was 2000 nM. For the same binder, the Kd [4] was 770 nM, the Fold drug specificity [5] was 56000 fold and the Fold drug specificity [6] was 21000 fold. It also gave a Kd [12] of 0.036 nM.

B4: GNCR1, yeast surface display (C-terminal fusion to Aga2) (designed binder)
chain: KDNSSTIEGRYPYDVPDYALQASGGGGSGGGGSGGGGSASHMDIEKLCKKAEEEAKEAQEKADELRQRHPDSQAAEDAEDLANLAVAAVLTACLLAQEHPNADIAKLCIKAASEAAEAASKAAELAQRHPDSQAARDAIKLASQAARAVILAIMLAAENPNADIAKLCIKAASEAAEAASKAAELAQRHPDSQAARDAIKLASQAAEAVERAIWLAAENPNADIAKKCIKAASEAAEEASKAAEEAQRHPDSQKARDEIKEASQKAEEVKERCKSLEGGGSEQKLISEEDL
In the case of B4, the Kd [13] is reported as < 200 nM and the Kd [2] is reported as 140 nM.

B5: ANR-ANR-BFP-CAAX (other)
chain: MGELDELVYLLDGPGYDPIHSDGSGTGSGTGSGTGTTSGTGTGGSTGGELDELVYLLDGPGYDPIHSDGSGTGSGTGSGTGTTSGTGTGGSTGEQKLISEEDLGSGSSELIKENMHMKLYMEGTVDNHHFKCTSEGEGKPYEGTQTMRIKVVEGGPLPFAFDILATSFLYGSKTFINHTQGIPDFFKQSFPEGFTWERVTTYEDGGVLTATQDTSLQDGCLIYNVKIRGVNFTSNGPVMQKKTLGWEAFTETLYPADGGLEGRNDMALKLVGGSHLIANIKTTYRSKKPAKNLKMPGVYYVDYRLERIKEANNETYVEQHEVAVARYCDLPSKLGHKLNRKHKEKMSKDGKKKKKKSKTKCVIM
B5: binds [14].

B6: Tom20-BFP-ANR-ANR (other)
chain: MVGRNSAIAAGVCGALFIGYCIYFDRKRRSDPNFMSELIKENMHMKLYMEGTVDNHHFKCTSEGEGKPYEGTQTMRIKVVEGGPLPFAFDILATSFLYGSKTFINHTQGIPDFFKQSFPEGFTWERVTTYEDGGVLTATQDTSLQDGCLIYNVKIRGVNFTSNGPVMQKKTLGWEAFTETLYPADGGLEGRNDMALKLVGGSHLIANIKTTYRSKKPAKNLKMPGVYYVDYRLERIKEANNETYVEQHEVAVARYCDLPSKLGHKLNSGSGEQKLISEEDLGSGTGSGTGSGTGTTSGTGTGGSTGGELDELVYLLDGPGYDPIHSDGSGTGSGTGSGTGTTSGTGTGGSTGGELDELVYLLDGPGYDPIHSDGSGATNFSLLKQAGDVEENPG
B6: binds [14].

B7: D5 W177D, yeast surface display (designed binder)
chain: SSDEEEARELIERAKEAAERAQEAAERTGDPRVRELARELKRLAQEAAEEVKRDPSSSDVNEALKLIVEAIEAAVDALEAAERTGDPEVRELARELVRLAVEAAEEVQRNPSSSDVNEALLTIVIAIEAAVNALEAAERTGDPEVRELARELVRLAVEAAEEVQRNPSSREVNIALDKIVLAIQEAVESLREAEESGDPEKREKARERVREAVERAEEVQRDPSGWLNH
notes: also called point mutant of the D5 interface, W177D
B7: no binding (tested: 1 µM NS3a with avidity, 10 µM danoprevir) [15].

B8: G3 M112E, yeast surface display (designed binder)
chain: DIEKLCKKAEEEAKEAQEKADELRQRHPDSQAAEDAEDLANEAEAAVLAACSLAQEHPNADIAKLCIKAASEAAEAASKAAELAQRHPDSQAARDAIKLASQAARAVILAIELAAENPNADIAKLCIKAASEAAEAASKAAELAQRHPDSQAARDAIKLASQAAEAVERAIWLAAENPNADIAKKCIKAASEAAEEASKAAEEAQRHPDSQKARDEIKEASQKAEEVKERCKS
notes: also called G3 interface point mutant M112E
B8: no binding [16].

B9: G3 A175Q, yeast surface display (designed binder)
chain: B8 chain with E112M, A175Q
notes: See note of m25; also called G3 interface point mutant A175Q
B9: no binding [16].
